The values below come from PMC5322959.

This assay deals with His6x-tagged hRNF145 RING protein (human) (UniProt Q96MT1). Kind of assay: SEC; Superdex 75 10/300 column calibrated with a set of standard proteins; elution volume corresponds to an apparent molecular mass of 39 kDa (predicted weight 18 kD).

For orientation: stoichiometry N means a count of units in the complex or per binding partner. In the case of “His6x-tagged hRNF145 RING protein (from UniProt Q96MT1-1 550-663) (domain or fragment)”, the stoichiometry N is 2.
